According to the supplement of paper PMC9112550, “Optimization of the antimicrobial peptide Bac7 by deep mutational scanning” (BMC Biology, 2022):

Tested on: Escherichia coli TOP10
Experiment: shrunken log2 fold change of peptide-encoding DNA abundance (4.5 h post-induction vs induction); higher = less antimicrobial activity (less host growth inhibition)
Settings: time post-induction: 4.5 h; library: site-saturation at positions 5, 18, 19, 20
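Note: peptides expressed intracellularly from a pBAD plasmid library in pooled LB shake-flask culture, induced with 0.3% L-arabinose, DNA abundance read by NGS, three biological replicates, DESeq2 with apeglm shrinkage.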

RRIRHRPPRLPRPRPRPIRRPRP
shrunken log2 fold change: 0.0591

RRIRHRPPRLPRPRPRPISLPRP
shrunken log2 fold change: -0.234

RRIRHRPPRLPRPRPRPISVPRP
shrunken log2 fold change: -0.00149

RRIRHRPPRLPRPRPRPITDPRP
shrunken log2 fold change: -0.229

RRIRHRPPRLPRPRPRPITPPRP
shrunken log2 fold change: -0.538

RRIRHRPPRLPRPRPRPIVGPRP
shrunken log2 fold change: -0.476

RRIRHRPPRLPRPRPRPIVMPRP
shrunken log2 fold change: -0.012

RRIRHRPPRLPRPRPRPIWMPRP
shrunken log2 fold change: -0.0859

RRIRHRPPRLPRPRPRPIWPPRP
shrunken log2 fold change: 0.0213

RRIRHRPPRLPRPRPRPIWWPRP
shrunken log2 fold change: 0.0995

RRIRHRPPRLPRPRPRPKEHPRP
shrunken log2 fold change: 0.0812

RRIRHRPPRLPRPRPRPKEIPRP
shrunken log2 fold change: -0.00142

RRIRHRPPRLPRPRPRPKFCPRP
shrunken log2 fold change: -0.132

RRIRHRPPRLPRPRPRPKFIPRP
shrunken log2 fold change: -0.192

RRIRHRPPRLPRPRPRPKFKPRP
shrunken log2 fold change: 0.0646

RRIRHRPPRLPRPRPRPKHRPRP
shrunken log2 fold change: 0.376

RRIRHRPPRLPRPRPRPKILPRP
shrunken log2 fold change: 0.0673

RRIRHRPPRLPRPRPRPKINPRP
shrunken log2 fold change: -0.817

RRIRHRPPRLPRPRPRPKIQPRP
shrunken log2 fold change: -0.484

RRIRHRPPRLPRPRPRPKKAPRP
shrunken log2 fold change: 0.0601

RRIRHRPPRLPRPRPRPKKQPRP
shrunken log2 fold change: -0.0264

RRIRHRPPRLPRPRPRPKLDPRP
shrunken log2 fold change: 0.225

RRIRHRPPRLPRPRPRPKLVPRP
shrunken log2 fold change: -0.017

RRIRHRPPRLPRPRPRPKPSPRP
shrunken log2 fold change: 0.411

RRIRHRPPRLPRPRPRPKQLPRP
shrunken log2 fold change: -0.553

RRIRHRPPRLPRPRPRPKQMPRP
shrunken log2 fold change: -0.0152

RRIRHRPPRLPRPRPRPKQSPRP
shrunken log2 fold change: -0.248

RRIRHRPPRLPRPRPRPKSYPRP
shrunken log2 fold change: -0.245

RRIRHRPPRLPRPRPRPKTEPRP
shrunken log2 fold change: -0.0292

RRIRHRPPRLPRPRPRPKWNPRP
shrunken log2 fold change: -0.206

RRIRHRPPRLPRPRPRPKYDPRP
shrunken log2 fold change: -0.246

RRIRHRPPRLPRPRPRPLAPPRP
shrunken log2 fold change: 0.196

RRIRHRPPRLPRPRPRPLCKPRP
shrunken log2 fold change: 0.0111

RRIRHRPPRLPRPRPRPLDSPRP
shrunken log2 fold change: -0.448

RRIRHRPPRLPRPRPRPLGGPRP
shrunken log2 fold change: -0.0164

RRIRHRPPRLPRPRPRPLILPRP
shrunken log2 fold change: 0.0886

RRIRHRPPRLPRPRPRPLKEPRP
shrunken log2 fold change: -0.0179

RRIRHRPPRLPRPRPRPLKMPRP
shrunken log2 fold change: -0.182

RRIRHRPPRLPRPRPRPLLEPRP
shrunken log2 fold change: 0.0851

RRIRHRPPRLPRPRPRPLLGPRP
shrunken log2 fold change: -0.107

RRIRHRPPRLPRPRPRPLMEPRP
shrunken log2 fold change: -0.348

RRIRHRPPRLPRPRPRPLMKPRP
shrunken log2 fold change: -0.581

RRIRHRPPRLPRPRPRPLPHPRP
shrunken log2 fold change: -0.162

RRIRHRPPRLPRPRPRPLPKPRP
shrunken log2 fold change: 0.389

RRIRHRPPRLPRPRPRPLPMPRP
shrunken log2 fold change: -0.00404

RRIRHRPPRLPRPRPRPLPYPRP
shrunken log2 fold change: -0.137

RRIRHRPPRLPRPRPRPLQNPRP
shrunken log2 fold change: -0.00367

RRIRHRPPRLPRPRPRPLQYPRP
shrunken log2 fold change: -0.582

RRIRHRPPRLPRPRPRPLRKPRP
shrunken log2 fold change: 0.0993

RRIRHRPPRLPRPRPRPLRWPRP
shrunken log2 fold change: 0.3

RRIRHRPPRLPRPRPRPLYIPRP
shrunken log2 fold change: -0.777

RRIRHRPPRLPRPRPRPMCTPRP
shrunken log2 fold change: -0.696

RRIRHRPPRLPRPRPRPMDDPRP
shrunken log2 fold change: -0.118

RRIRHRPPRLPRPRPRPMGPPRP
shrunken log2 fold change: 0.0818

RRIRHRPPRLPRPRPRPMIFPRP
shrunken log2 fold change: -0.251

RRIRHRPPRLPRPRPRPMILPRP
shrunken log2 fold change: -0.0484

RRIRHRPPRLPRPRPRPMIMPRP
shrunken log2 fold change: -0.266

RRIRHRPPRLPRPRPRPMKQPRP
shrunken log2 fold change: -0.0525

RRIRHRPPRLPRPRPRPMMKPRP
shrunken log2 fold change: 0.0118

RRIRHRPPRLPRPRPRPMMYPRP
shrunken log2 fold change: -0.0859

RRIRHRPPRLPRPRPRPMNEPRP
shrunken log2 fold change: -0.275

RRIRHRPPRLPRPRPRPMNNPRP
shrunken log2 fold change: -0.759

RRIRHRPPRLPRPRPRPMNQPRP
shrunken log2 fold change: -0.221

RRIRHRPPRLPRPRPRPMPFPRP
shrunken log2 fold change: 0.0462

RRIRHRPPRLPRPRPRPMQQPRP
shrunken log2 fold change: -0.174

RRIRHRPPRLPRPRPRPMRKPRP
shrunken log2 fold change: 0.0179

RRIRHRPPRLPRPRPRPMVFPRP
shrunken log2 fold change: 0.14

RRIRHRPPRLPRPRPRPMYCPRP
shrunken log2 fold change: -0.125

RRIRHRPPRLPRPRPRPMYFPRP
shrunken log2 fold change: -0.00207

RRIRHRPPRLPRPRPRPMYTPRP
shrunken log2 fold change: 0.588

RRIRHRPPRLPRPRPRPMYYPRP
shrunken log2 fold change: -0.681

RRIRHRPPRLPRPRPRPNATPRP
shrunken log2 fold change: 0.255

RRIRHRPPRLPRPRPRPNAVPRP
shrunken log2 fold change: 0.0142

RRIRHRPPRLPRPRPRPNAWPRP
shrunken log2 fold change: 0.341

RRIRHRPPRLPRPRPRPNDIPRP
shrunken log2 fold change: -0.0322

RRIRHRPPRLPRPRPRPNEAPRP
shrunken log2 fold change: 0.0232

RRIRHRPPRLPRPRPRPNEPPRP
shrunken log2 fold change: -0.00438

RRIRHRPPRLPRPRPRPNFQPRP
shrunken log2 fold change: -0.161

RRIRHRPPRLPRPRPRPNGHPRP
shrunken log2 fold change: -0.0552

RRIRHRPPRLPRPRPRPNGQPRP
shrunken log2 fold change: 0.024

RRIRHRPPRLPRPRPRPNHHPRP
shrunken log2 fold change: -0.797

RRIRHRPPRLPRPRPRPNHNPRP
shrunken log2 fold change: -0.954

RRIRHRPPRLPRPRPRPNIHPRP
shrunken log2 fold change: -0.364

RRIRHRPPRLPRPRPRPNKIPRP
shrunken log2 fold change: -0.622

RRIRHRPPRLPRPRPRPNLEPRP
shrunken log2 fold change: 0.127

RRIRHRPPRLPRPRPRPNLTPRP
shrunken log2 fold change: -0.588

RRIRHRPPRLPRPRPRPNMNPRP
shrunken log2 fold change: -0.424

RRIRHRPPRLPRPRPRPNPNPRP
shrunken log2 fold change: -0.202

RRIRHRPPRLPRPRPRPNPTPRP
shrunken log2 fold change: -0.193

RRIRHRPPRLPRPRPRPNSIPRP
shrunken log2 fold change: -0.0178

RRIRHRPPRLPRPRPRPNSPPRP
shrunken log2 fold change: -0.337

RRIRHRPPRLPRPRPRPNSYPRP
shrunken log2 fold change: 0.118

RRIRHRPPRLPRPRPRPNTPPRP
shrunken log2 fold change: 0.0157

RRIRHRPPRLPRPRPRPNVLPRP
shrunken log2 fold change: -0.0715

RRIRHRPPRLPRPRPRPNYCPRP
shrunken log2 fold change: -0.0948

RRIRHRPPRLPRPRPRPNYEPRP
shrunken log2 fold change: -0.586

RRIRHRPPRLPRPRPRPNYIPRP
shrunken log2 fold change: -1.35

RRIRHRPPRLPRPRPRPNYWPRP
shrunken log2 fold change: -0.358

RRIRHRPPRLPRPRPRPPAAPRP
shrunken log2 fold change: 0.0555

RRIRHRPPRLPRPRPRPPAQPRP
shrunken log2 fold change: 0.633

RRIRHRPPRLPRPRPRPPCGPRP
shrunken log2 fold change: 0.176

RRIRHRPPRLPRPRPRPPDAPRP
shrunken log2 fold change: 0.348

RRIRHRPPRLPRPRPRPPDHPRP
shrunken log2 fold change: 0.265

RRIRHRPPRLPRPRPRPPEGPRP
shrunken log2 fold change: 0.168

RRIRHRPPRLPRPRPRPPFWPRP
shrunken log2 fold change: 0.0835

RRIRHRPPRLPRPRPRPPGFPRP
shrunken log2 fold change: 0.011

RRIRHRPPRLPRPRPRPPGKPRP
shrunken log2 fold change: -0.155

RRIRHRPPRLPRPRPRPPGSPRP
shrunken log2 fold change: 0.0725

RRIRHRPPRLPRPRPRPPGYPRP
shrunken log2 fold change: 0.0632

RRIRHRPPRLPRPRPRPPHDPRP
shrunken log2 fold change: 0.047

RRIRHRPPRLPRPRPRPPHFPRP
shrunken log2 fold change: 0.297

RRIRHRPPRLPRPRPRPPHHPRP
shrunken log2 fold change: -0.0583

RRIRHRPPRLPRPRPRPPHPPRP
shrunken log2 fold change: 0.15

RRIRHRPPRLPRPRPRPPKMPRP
shrunken log2 fold change: -0.0472

RRIRHRPPRLPRPRPRPPNCPRP
shrunken log2 fold change: -0.19

RRIRHRPPRLPRPRPRPPQLPRP
shrunken log2 fold change: -0.215

RRIRHRPPRLPRPRPRPPRCPRP
shrunken log2 fold change: 0.526

RRIRHRPPRLPRPRPRPPRHPRP
shrunken log2 fold change: 0.231

RRIRHRPPRLPRPRPRPPSPPRP
shrunken log2 fold change: 0.169

RRIRHRPPRLPRPRPRPPTSPRP
shrunken log2 fold change: -0.128

RRIRHRPPRLPRPRPRPPVRPRP
shrunken log2 fold change: 0.16

RRIRHRPPRLPRPRPRPPYEPRP
shrunken log2 fold change: -0.486

RRIRHRPPRLPRPRPRPQCGPRP
shrunken log2 fold change: -0.333

RRIRHRPPRLPRPRPRPQENPRP
shrunken log2 fold change: -0.245

RRIRHRPPRLPRPRPRPQEWPRP
shrunken log2 fold change: -0.119

RRIRHRPPRLPRPRPRPQFKPRP
shrunken log2 fold change: -0.024

RRIRHRPPRLPRPRPRPQFSPRP
shrunken log2 fold change: -0.139

RRIRHRPPRLPRPRPRPQGMPRP
shrunken log2 fold change: -0.201

RRIRHRPPRLPRPRPRPQGTPRP
shrunken log2 fold change: -0.284

RRIRHRPPRLPRPRPRPQHLPRP
shrunken log2 fold change: -0.358

RRIRHRPPRLPRPRPRPQIAPRP
shrunken log2 fold change: -0.103

RRIRHRPPRLPRPRPRPQKEPRP
shrunken log2 fold change: -0.03

RRIRHRPPRLPRPRPRPQKPPRP
shrunken log2 fold change: -0.0624

RRIRHRPPRLPRPRPRPQKWPRP
shrunken log2 fold change: -0.875

RRIRHRPPRLPRPRPRPQLLPRP
shrunken log2 fold change: -0.197

RRIRHRPPRLPRPRPRPQMSPRP
shrunken log2 fold change: -0.0899

RRIRHRPPRLPRPRPRPQNNPRP
shrunken log2 fold change: -0.731

RRIRHRPPRLPRPRPRPQPKPRP
shrunken log2 fold change: 0.24

RRIRHRPPRLPRPRPRPQPWPRP
shrunken log2 fold change: 0.0549

RRIRHRPPRLPRPRPRPQQSPRP
shrunken log2 fold change: -0.0132

RRIRHRPPRLPRPRPRPQRRPRP
shrunken log2 fold change: 0.0777

RRIRHRPPRLPRPRPRPQRYPRP
shrunken log2 fold change: -0.0589

RRIRHRPPRLPRPRPRPQSEPRP
shrunken log2 fold change: -0.314

RRIRHRPPRLPRPRPRPQTFPRP
shrunken log2 fold change: -0.105

RRIRHRPPRLPRPRPRPQYSPRP
shrunken log2 fold change: -0.572

RRIRHRPPRLPRPRPRPRAKPRP
shrunken log2 fold change: 1.14

RRIRHRPPRLPRPRPRPRATPRP
shrunken log2 fold change: 0.554

RRIRHRPPRLPRPRPRPRDAPRP
shrunken log2 fold change: 0.14

RRIRHRPPRLPRPRPRPREGPRP
shrunken log2 fold change: 0.264

RRIRHRPPRLPRPRPRPRFRPRP
shrunken log2 fold change: -0.105
